The values below come from the Human Domainome abundance scans (Beltran et al. 2025).

B1: Zinc finger MYM-type protein 3, residues 405 to 444; numbered along this chain, Q14202 (parent)
chain: DATRCSICQKTGEVLHEVSNGSVVHRLCSDSCFSKFRANK
B2: Membrane-associated guanylate kinase, WW and PDZ domain-containing protein 2, residues 296 to 340; numbered along this chain, Q86UL8 (parent)
chain: EDNEEPDPLPDNWEMAYTEKGEVYFIDHNTKTTSWLDPRLAKKAK

± gives the uncertainty stated by the source.

One data set covers variants of B1. As to the kind of experiment: abundance fitness (aPCA) (normalised: wild type 0, dead -1); higher = more abundant; growth selection in yeast, the domain comes from the species named. To be noted: Homo sapiens.
As to DKTRCSICQKTGEVLHEVSNGSVVHRLCSDSCFSKFRANK [A2K], the abundance fitness was 0.243 ± 0.08.
On to DCTRCSICQKTGEVLHEVSNGSVVHRLCSDSCFSKFRANK [A2C], for which the abundance fitness was 0.305 ± 0.071.
As to DPTRCSICQKTGEVLHEVSNGSVVHRLCSDSCFSKFRANK [A2P], the abundance fitness is -0.225 ± 0.068.
On to DGTRCSICQKTGEVLHEVSNGSVVHRLCSDSCFSKFRANK [A2G], for which the abundance fitness is -0.186 ± 0.055.
On the same count and under the same terms, the figure for DDTRCSICQKTGEVLHEVSNGSVVHRLCSDSCFSKFRANK [A2D] is 0.305 ± 0.067.
Regarding DTTRCSICQKTGEVLHEVSNGSVVHRLCSDSCFSKFRANK [A2T], the abundance fitness was 0.35 ± 0.062.
Take DVTRCSICQKTGEVLHEVSNGSVVHRLCSDSCFSKFRANK [A2V]: the abundance fitness was -0.603 ± 0.068.
For the variant DFTRCSICQKTGEVLHEVSNGSVVHRLCSDSCFSKFRANK [A2F], the abundance fitness was 0.186 ± 0.14.
Regarding DNTRCSICQKTGEVLHEVSNGSVVHRLCSDSCFSKFRANK [A2N], the abundance fitness is 0.461 ± 0.072.
Take DWTRCSICQKTGEVLHEVSNGSVVHRLCSDSCFSKFRANK [A2W]: the abundance fitness is -0.204 ± 0.08.
Still for that read-out and setting: the figure for DMTRCSICQKTGEVLHEVSNGSVVHRLCSDSCFSKFRANK [A2M] is 0.48 ± 0.064.
On to DHTRCSICQKTGEVLHEVSNGSVVHRLCSDSCFSKFRANK [A2H], for which the abundance fitness was found to be 0.041 ± 0.11.
Still for that read-out and setting: the value for DETRCSICQKTGEVLHEVSNGSVVHRLCSDSCFSKFRANK [A2E] was -0.013 ± 0.063; that for DITRCSICQKTGEVLHEVSNGSVVHRLCSDSCFSKFRANK [A2I] was 0.327 ± 0.11.
Consider DQTRCSICQKTGEVLHEVSNGSVVHRLCSDSCFSKFRANK [A2Q], for which the abundance fitness is 0.285 ± 0.069.
Regarding DRTRCSICQKTGEVLHEVSNGSVVHRLCSDSCFSKFRANK [A2R], the abundance fitness is -0.089 ± 0.053.
For DATACSICQKTGEVLHEVSNGSVVHRLCSDSCFSKFRANK [R4A], the abundance fitness was -0.2 ± 0.056.
The same measure, in the same setting: the figure for DATCCSICQKTGEVLHEVSNGSVVHRLCSDSCFSKFRANK [R4C] is -0.012 ± 0.073; for DAMRCSICQKTGEVLHEVSNGSVVHRLCSDSCFSKFRANK [T3M] it is 0.426 ± 0.061; for DALRCSICQKTGEVLHEVSNGSVVHRLCSDSCFSKFRANK [T3L] it is -0.061 ± 0.056.
Consider DADRCSICQKTGEVLHEVSNGSVVHRLCSDSCFSKFRANK [T3D], for which the abundance fitness was -0.088 ± 0.067.
For DAQRCSICQKTGEVLHEVSNGSVVHRLCSDSCFSKFRANK [T3Q], the abundance fitness came out at 0.205 ± 0.061.
In the case of DAFRCSICQKTGEVLHEVSNGSVVHRLCSDSCFSKFRANK [T3F], the abundance fitness is -0.181 ± 0.078.
Regarding DASRCSICQKTGEVLHEVSNGSVVHRLCSDSCFSKFRANK [T3S], the abundance fitness is -0.06 ± 0.058.
As for DAARCSICQKTGEVLHEVSNGSVVHRLCSDSCFSKFRANK [T3A], the abundance fitness was -0.366 ± 0.057.
Same read-out and setting: the figure for DAPRCSICQKTGEVLHEVSNGSVVHRLCSDSCFSKFRANK [T3P] is -0.561 ± 0.067; for DACRCSICQKTGEVLHEVSNGSVVHRLCSDSCFSKFRANK [T3C] it is -0.726 ± 0.1.
As for DAIRCSICQKTGEVLHEVSNGSVVHRLCSDSCFSKFRANK [T3I], the abundance fitness is -0.028 ± 0.075.
DAYRCSICQKTGEVLHEVSNGSVVHRLCSDSCFSKFRANK [T3Y]: the abundance fitness is -0.025 ± 0.075.
For DAKRCSICQKTGEVLHEVSNGSVVHRLCSDSCFSKFRANK [T3K], the abundance fitness came to 0.272 ± 0.057.
As to DANRCSICQKTGEVLHEVSNGSVVHRLCSDSCFSKFRANK [T3N], the abundance fitness was determined as 0.025 ± 0.091.
For DARRCSICQKTGEVLHEVSNGSVVHRLCSDSCFSKFRANK [T3R], the abundance fitness was -0.047 ± 0.052.
For DAGRCSICQKTGEVLHEVSNGSVVHRLCSDSCFSKFRANK [T3G], the abundance fitness was found to be 0.091 ± 0.054.
Regarding DAVRCSICQKTGEVLHEVSNGSVVHRLCSDSCFSKFRANK [T3V], the abundance fitness was -0.388 ± 0.056.
With DAWRCSICQKTGEVLHEVSNGSVVHRLCSDSCFSKFRANK [T3W], the abundance fitness is -0.085 ± 0.058.
As to RATRCSICQKTGEVLHEVSNGSVVHRLCSDSCFSKFRANK [D1R], the abundance fitness is -0.165 ± 0.065.
For FATRCSICQKTGEVLHEVSNGSVVHRLCSDSCFSKFRANK [D1F], the abundance fitness is -0.219 ± 0.11.
As for EATRCSICQKTGEVLHEVSNGSVVHRLCSDSCFSKFRANK [D1E], the abundance fitness was 0.331 ± 0.076.
Turning to LATRCSICQKTGEVLHEVSNGSVVHRLCSDSCFSKFRANK [D1L], the abundance fitness is -0.07 ± 0.11.
Still for that read-out and setting: the value for PATRCSICQKTGEVLHEVSNGSVVHRLCSDSCFSKFRANK [D1P] was -0.32 ± 0.1; that for KATRCSICQKTGEVLHEVSNGSVVHRLCSDSCFSKFRANK [D1K] was 0.157 ± 0.079; that for SATRCSICQKTGEVLHEVSNGSVVHRLCSDSCFSKFRANK [D1S] was -0.054 ± 0.09.
NATRCSICQKTGEVLHEVSNGSVVHRLCSDSCFSKFRANK [D1N]: the abundance fitness amounted to 0.142 ± 0.13.
On the same count and under the same terms, the figure for VATRCSICQKTGEVLHEVSNGSVVHRLCSDSCFSKFRANK [D1V] is 0.083 ± 0.065; for AATRCSICQKTGEVLHEVSNGSVVHRLCSDSCFSKFRANK [D1A] it is -0.182 ± 0.089; for MATRCSICQKTGEVLHEVSNGSVVHRLCSDSCFSKFRANK [D1M] it is 0.112 ± 0.098.
Still for that read-out and setting: the value for QATRCSICQKTGEVLHEVSNGSVVHRLCSDSCFSKFRANK [D1Q] was -0.251 ± 0.12; that for GATRCSICQKTGEVLHEVSNGSVVHRLCSDSCFSKFRANK [D1G] was 0.154 ± 0.054.
For WATRCSICQKTGEVLHEVSNGSVVHRLCSDSCFSKFRANK [D1W], the abundance fitness was -0.504 ± 0.23.
As to TATRCSICQKTGEVLHEVSNGSVVHRLCSDSCFSKFRANK [D1T], the abundance fitness came out at 0.303 ± 0.12.

Another data set covers variants of B2. The data set is described as above. The following applies: Homo sapiens.
In the case of K31D, the abundance fitness is -0.38 ± 0.091.
For the variant K31Q, the abundance fitness came out at 0.013 ± 0.056.
Turning to K31C, the abundance fitness is -0.024 ± 0.055.
On the same count and under the same terms, the value for K31Y was -0.235 ± 0.11.
On to K31R, for which the abundance fitness is 0.005 ± 0.039.
Still for that read-out and setting: the value for K31H was 0.103 ± 0.11.
Consider K31T, for which the abundance fitness is -0.355 ± 0.071.
With K31V, the abundance fitness is -0.473 ± 0.048.
Take K31L: the abundance fitness is -0.155 ± 0.048.
Consider K31W, for which the abundance fitness is -0.2 ± 0.058.
Consider K31E, for which the abundance fitness was -0.08 ± 0.043.
For the variant K31I, the abundance fitness was -0.498 ± 0.079.
Take K31G: the abundance fitness was -0.074 ± 0.038.
Regarding K31S, the abundance fitness is -0.114 ± 0.054.
K31P: the abundance fitness was -0.675 ± 0.076.
With K31M, the abundance fitness was -0.008 ± 0.058.
On to T32C, for which the abundance fitness worked out at 0.007 ± 0.11.
Still for that read-out and setting: the figure for T32H is -0.434 ± 0.063; for T32Q it is -0.199 ± 0.067; for T32K it is -0.303 ± 0.12.
As to T32M, the abundance fitness is -0.071 ± 0.069.
For the variant T32V, the abundance fitness is -0.111 ± 0.045.
Same read-out and setting: the figure for T32F is -0.843 ± 0.37; for T32W it is -0.325 ± 0.073.
Turning to T32S, the abundance fitness is -0.08 ± 0.064.
With T32N, the abundance fitness was -0.353 ± 0.088.
Same read-out and setting: the value for T32R was -0.269 ± 0.05; that for K43D was 0.029 ± 0.12.
Regarding K43G, the abundance fitness was 0.066 ± 0.047.
In the case of K43W, the abundance fitness is -0.2 ± 0.075.
As for K43V, the abundance fitness worked out at 0.023 ± 0.094.
As for K43F, the abundance fitness was -0.142 ± 0.093.
In the case of K43N, the abundance fitness is -0.324 ± 0.42.
Turning to K43R, the abundance fitness worked out at 0.023 ± 0.063.
Consider K43A, for which the abundance fitness worked out at 0.062 ± 0.085.
In the case of K43T, the abundance fitness is -0.043 ± 0.12.
The same measure, in the same setting: the figure for K43I is -0.139 ± 0.48.
Consider K43L, for which the abundance fitness was -0.113 ± 0.053.
The same measure, in the same setting: the figure for K45V is 0.209 ± 0.28; for K45G it is 0.081 ± 0.067.
Same read-out and setting: the value for K45Q was 0.1 ± 0.21; that for K45S was 0.076 ± 0.074.
For K45E, the abundance fitness was -0.022 ± 0.098.
For the variant K45W, the abundance fitness was -0.01 ± 0.087.
For K45R, the abundance fitness was 0.199 ± 0.23.
In the case of L36S, the abundance fitness is -0.125 ± 0.045.
Take L36V: the abundance fitness was 0.025 ± 0.042.
On the same count and under the same terms, the figure for L36I is 0.086 ± 0.14; for L36N it is -0.186 ± 0.09.
Take L36C: the abundance fitness came to 0.153 ± 0.12.
Take L36H: the abundance fitness is -0.298 ± 0.17.
On to L36A, for which the abundance fitness is -0.117 ± 0.067.
L36K: the abundance fitness was -0.012 ± 0.054.
L36W: the abundance fitness was -0.078 ± 0.087.
In the case of L36P, the abundance fitness is -0.776 ± 0.099.
Take L36F: the abundance fitness is -0.184 ± 0.11.
In the case of L36R, the abundance fitness was -0.051 ± 0.044.
Same read-out and setting: the value for L36D was -0.227 ± 0.12; that for L36E was -0.111 ± 0.079; that for L36G was -0.198 ± 0.057.
On to L36T, for which the abundance fitness was -0.127 ± 0.061.
Regarding L36M, the abundance fitness was -0.053 ± 0.078.
On to T33L, for which the abundance fitness was -0.635 ± 0.075.
On the same count and under the same terms, the value for T33K was -0.492 ± 0.047; that for T33W was -0.763 ± 0.056.
On to T33P, for which the abundance fitness is -0.841 ± 0.074.
On to T33M, for which the abundance fitness is -0.488 ± 0.08.
In the case of T33E, the abundance fitness was -0.655 ± 0.06.
With T33G, the abundance fitness is -0.776 ± 0.043.
As to T33I, the abundance fitness was -0.507 ± 0.11.
Consider T33A, for which the abundance fitness is -0.438 ± 0.048.
As to T33Q, the abundance fitness is -0.637 ± 0.068.
For T33S, the abundance fitness is -0.236 ± 0.045.
Still for that read-out and setting: the figure for T33V is -0.272 ± 0.046; for T33C it is 0.021 ± 0.063.
